Data on two molecules can be found in PMC9894219.

Like-named read-outs stand apart in the source and are kept apart here.

The target in data set [1] is T1, Nurr1258 (in Nurr1258-RXRα98 heterodimer);RXRα98 (DBD-hinge-LBD) (human?;human?, UniProt P43354;P19793 258-598;98-462, |). Kind of data set: BLI.
Data set [2] has as its target T1, Nurr1258 (in Nurr1258-RXRα98 …). Kind of data set: BLI. This is another data set of the same source. (In general: Biolayer interferometry detects binding as a change in optical thickness at a sensor tip.)
Data set [3] has as its target Nurr1258 (Nurr1 DBD-hinge-LBD) (UniProt P43354 258-598). Kind of data set: crystal structure.

T1 sequence (P43354 258-598, chain 1 of 2): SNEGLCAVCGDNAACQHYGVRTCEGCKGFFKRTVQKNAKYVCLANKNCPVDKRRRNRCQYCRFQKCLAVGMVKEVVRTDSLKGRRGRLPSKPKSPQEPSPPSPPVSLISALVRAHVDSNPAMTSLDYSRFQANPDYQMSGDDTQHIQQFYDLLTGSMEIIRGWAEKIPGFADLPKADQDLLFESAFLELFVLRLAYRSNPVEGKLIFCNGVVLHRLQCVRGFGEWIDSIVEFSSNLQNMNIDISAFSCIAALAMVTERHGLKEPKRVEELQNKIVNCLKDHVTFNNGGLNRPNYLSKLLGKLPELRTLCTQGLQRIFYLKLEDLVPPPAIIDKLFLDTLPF
T1 sequence (P19793 98-462, chain 2 of 2): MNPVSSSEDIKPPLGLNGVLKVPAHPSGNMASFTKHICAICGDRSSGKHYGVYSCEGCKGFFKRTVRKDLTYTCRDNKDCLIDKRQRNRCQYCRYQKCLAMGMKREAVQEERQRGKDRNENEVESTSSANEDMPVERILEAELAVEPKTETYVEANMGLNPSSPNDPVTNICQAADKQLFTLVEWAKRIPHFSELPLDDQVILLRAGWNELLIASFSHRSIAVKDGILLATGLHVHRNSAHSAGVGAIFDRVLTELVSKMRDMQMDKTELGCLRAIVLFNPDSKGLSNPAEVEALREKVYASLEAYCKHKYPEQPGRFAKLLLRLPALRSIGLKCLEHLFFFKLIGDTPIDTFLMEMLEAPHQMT
Sequence of Nurr1258 (Nurr1 DBD-hinge-LBD) (P43354 258-598): as the sequence (P43354 258-598, chain 1 of 2) above

B1: IR5 biotinylated (dsDNA)
DNA 1: AAAGGTCAAACTGTGACCTAT
DNA 2: ATAGGTCACAGTTTGACCTTT
In general, Kd refers to a measure of binding affinity in units of concentration. Higher therefore signals weaker binding. For the molecule B1, the Kd in data set [1] turned out to be 864 nM; in data set [2], 62.5 nM.

B2: NBRE (dsDNA)
DNA 1: CCGAAAAGGTCATGCG
DNA 2: CGCATGACCTTTTCGG
Regarding B2, the binding result in data set [3] is listed as “binds”.
